Assay results: patent US20160114035A1 (published 2016)

Each binder was assayed against DRB1*0701 (assay: binding to purified HLA).

| IC50 | Binder |
| --- | --- |
| 78 nM | AAAYFVAAFTLHAAA [Y4.F9.H12] |
| 43 nM | AAAWFVAANTLHAAA [W4.N9.H12] |

Each binder was assayed against DRB1*1501 (assay: binding to purified HLA).

| IC50 | Binder |
| --- | --- |
| 16 nM | AAAYFVAAFTLHAAA [Y4.F9.H12] |
| 101 nM | AAAWFVAANTLHAAA [W4.N9.H12] |

Each binder was assayed against DRB1*0404 (assay: binding to purified HLA).

| IC50 | Binder |
| --- | --- |
| 0.67 nM | AAAYFVAAFTLHAAA [Y4.F9.H12] |
| 5.5 nM | AAAWFVAANTLHAAA [W4.N9.H12] |

Each binder was assayed against DRB1*1101 (assay: binding to purified HLA).

| IC50 | Binder |
| --- | --- |
| 17 nM | AAAYFVAAFTLHAAA [Y4.F9.H12] |
| 16 nM | AAAWFVAANTLHAAA [W4.N9.H12] |

The binders below were run against DRB1*1302 (assay: binding to purified HLA).

| IC50 | Binder |
| --- | --- |
| 2560 nM | AAAYFVAAFTLHAAA [Y4.F9.H12] |
| 38 nM | AAAWFVAANTLHAAA [W4.N9.H12] |

What follows are binders tested against DRB1*0901 (assay: binding to purified HLA).

| IC50 | Binder |
| --- | --- |
| 13 nM | AAAYFVAAFTLHAAA [Y4.F9.H12] |
| 33 nM | AAAWFVAANTLHAAA [W4.N9.H12] |

The binders below were run against DRB4*0101 (assay: binding to purified HLA).

| IC50 | Binder |
| --- | --- |
| 81 nM | AAAYFVAAFTLHAAA [Y4.F9.H12] |
| 606 nM | AAAWFVAANTLHAAA [W4.N9.H12] |

These binders were tested against DRB1*0802 (assay: binding to purified HLA).

| IC50 | Binder |
| --- | --- |
| 5.9 nM | AAAYFVAAFTLHAAA [Y4.F9.H12] |
| 8.6 nM | AAAWFVAANTLHAAA [W4.N9.H12] |

What follows are binders tested against DRB5*0101 (assay: binding to purified HLA).

| IC50 | Binder |
| --- | --- |
| 18 nM | AAAYFVAAFTLHAAA [Y4.F9.H12] |
| 22 nM | AAAWFVAANTLHAAA [W4.N9.H12] |

Each binder was assayed against DRB1*0301 (assay: binding to purified HLA).

| IC50 | Binder |
| --- | --- |
| 126 nM | AAAYFVAAFTLHAAA [Y4.F9.H12] |
| 174 nM | AAAWFVAANTLHAAA [W4.N9.H12] |

The binders below were run against DRB1*0101 (assay: binding to purified HLA).

| IC50 | Binder |
| --- | --- |
| 3.4 nM | AAAYFVAAFTLHAAA [Y4.F9.H12] |
| 3.8 nM | AAAWFVAANTLHAAA [W4.N9.H12] |

Each binder was assayed against DRB1*0401 (assay: binding to purified HLA).

| IC50 | Binder |
| --- | --- |
| 1 nM | AAAYFVAAFTLHAAA [Y4.F9.H12] |
| 2.9 nM | AAAWFVAANTLHAAA [W4.N9.H12] |

What follows are binders tested against DRB1*0405 (assay: binding to purified HLA).

| IC50 | Binder |
| --- | --- |
| 4.4 nM | AAAYFVAAFTLHAAA [Y4.F9.H12] |
| 21 nM | AAAWFVAANTLHAAA [W4.N9.H12] |

Molecular target: DRB1*0701
Assay: binding to purified HLA
Remark: another data set of the same source

| IC50 | Binder |
| --- | --- |
| 76 nM | AAAHFVAANTLHAAA [H4.N9.H12] |
| 49 nM | AAAHFVAAFTLKAEA [H4.F9.E14] |
| 97 nM | AAAEFVAAWTLHAAA [E4.H12] |
| 67 nM | AAANFVAAYTLHAAA [N4.Y9.H12] |
| 161 nM | AAAEFVAAYTLHAAA [E4.Y9.H12] |

Molecular target: DRB1*1501
Assay: binding to purified HLA
Remark: another data set of the same source

| IC50 | Binder |
| --- | --- |
| 79 nM | AAAHFVAANTLHAAA [H4.N9.H12] |
| 31 nM | AAAHFVAAFTLKAEA [H4.F9.E14] |
| 51 nM | AAAEFVAAWTLHAAA [E4.H12] |
| 4.2 nM | AAANFVAAYTLHAAA [N4.Y9.H12] |
| 6.9 nM | AAAEFVAAYTLHAAA [E4.Y9.H12] |

Molecular target: DRB1*0404
Assay: binding to purified HLA
Remark: another data set of the same source

| IC50 | Binder |
| --- | --- |
| 6.8 nM | AAAHFVAANTLHAAA [H4.N9.H12] |
| 8.1 nM | AAAHFVAAFTLKAEA [H4.F9.E14] |
| 4.1 nM | AAAEFVAAWTLHAAA [E4.H12] |
| 5.2 nM | AAANFVAAYTLHAAA [N4.Y9.H12] |
| 3.2 nM | AAAEFVAAYTLHAAA [E4.Y9.H12] |

Molecular target: DRB1*1101
Assay: binding to purified HLA
Remark: another data set of the same source

| IC50 | Binder |
| --- | --- |
| 22 nM | AAAHFVAANTLHAAA [H4.N9.H12] |
| 41 nM | AAAHFVAAFTLKAEA [H4.F9.E14] |
| 38 nM | AAAEFVAAWTLHAAA [E4.H12] |
| 16 nM | AAANFVAAYTLHAAA [N4.Y9.H12] |
| 27 nM | AAAEFVAAYTLHAAA [E4.Y9.H12] |

Molecular target: DRB1*1302
Assay: binding to purified HLA
Remark: another data set of the same source

| IC50 | Binder |
| --- | --- |
| 47 nM | AAAHFVAANTLHAAA [H4.N9.H12] |
| 801 nM | AAAHFVAAFTLKAEA [H4.F9.E14] |
| 1150 nM | AAAEFVAAWTLHAAA [E4.H12] |
| 1420 nM | AAANFVAAYTLHAAA [N4.Y9.H12] |
| 1450 nM | AAAEFVAAYTLHAAA [E4.Y9.H12] |

Molecular target: DRB1*0901
Assay: binding to purified HLA
Remark: another data set of the same source

| IC50 | Binder |
| --- | --- |
| 37 nM | AAAHFVAANTLHAAA [H4.N9.H12] |
| 46 nM | AAAHFVAAFTLKAEA [H4.F9.E14] |
| 44 nM | AAAEFVAAWTLHAAA [E4.H12] |
| 25 nM | AAANFVAAYTLHAAA [N4.Y9.H12] |
| 28 nM | AAAEFVAAYTLHAAA [E4.Y9.H12] |

Molecular target: DRB4*0101
Assay: binding to purified HLA
Remark: another data set of the same source

| IC50 | Binder |
| --- | --- |
| 862 nM | AAAHFVAANTLHAAA [H4.N9.H12] |
| 526 nM | AAAHFVAAFTLKAEA [H4.F9.E14] |
| 350 nM | AAAEFVAAWTLHAAA [E4.H12] |
| 567 nM | AAANFVAAYTLHAAA [N4.Y9.H12] |
| 448 nM | AAAEFVAAYTLHAAA [E4.Y9.H12] |

Molecular target: DRB1*0802
Assay: binding to purified HLA
Remark: another data set of the same source

| IC50 | Binder |
| --- | --- |
| 17 nM | AAAHFVAANTLHAAA [H4.N9.H12] |
| 19 nM | AAAHFVAAFTLKAEA [H4.F9.E14] |
| 24 nM | AAAEFVAAWTLHAAA [E4.H12] |
| 7.5 nM | AAANFVAAYTLHAAA [N4.Y9.H12] |
| 13 nM | AAAEFVAAYTLHAAA [E4.Y9.H12] |

Molecular target: DRB5*0101
Assay: binding to purified HLA
Remark: another data set of the same source

| IC50 | Binder |
| --- | --- |
| 33 nM | AAAHFVAANTLHAAA [H4.N9.H12] |
| 19 nM | AAAHFVAAFTLKAEA [H4.F9.E14] |
| 48 nM | AAAEFVAAWTLHAAA [E4.H12] |
| 20 nM | AAANFVAAYTLHAAA [N4.Y9.H12] |
| 52 nM | AAAEFVAAYTLHAAA [E4.Y9.H12] |

Molecular target: DRB1*0301
Assay: binding to purified HLA
Remark: another data set of the same source

| IC50 | Binder |
| --- | --- |
| 361 nM | AAAHFVAANTLHAAA [H4.N9.H12] |
| 855 nM | AAAHFVAAFTLKAEA [H4.F9.E14] |
| 134 nM | AAAEFVAAWTLHAAA [E4.H12] |
| 171 nM | AAANFVAAYTLHAAA [N4.Y9.H12] |
| 144 nM | AAAEFVAAYTLHAAA [E4.Y9.H12] |

Molecular target: DRB1*0101
Assay: binding to purified HLA
Remark: another data set of the same source

| IC50 | Binder |
| --- | --- |
| 4.1 nM | AAAHFVAANTLHAAA [H4.N9.H12] |
| 6.8 nM | AAAHFVAAFTLKAEA [H4.F9.E14] |
| 5.1 nM | AAAEFVAAWTLHAAA [E4.H12] |
| 2.7 nM | AAANFVAAYTLHAAA [N4.Y9.H12] |
| 3.9 nM | AAAEFVAAYTLHAAA [E4.Y9.H12] |

Molecular target: DRB1*0401
Assay: binding to purified HLA
Remark: another data set of the same source

| IC50 | Binder |
| --- | --- |
| 4.5 nM | AAAHFVAANTLHAAA [H4.N9.H12] |
| 6.4 nM | AAAHFVAAFTLKAEA [H4.F9.E14] |
| 3.1 nM | AAAEFVAAWTLHAAA [E4.H12] |
| 1.8 nM | AAANFVAAYTLHAAA [N4.Y9.H12] |
| 2.3 nM | AAAEFVAAYTLHAAA [E4.Y9.H12] |

Molecular target: DRB1*0405
Assay: binding to purified HLA
Remark: another data set of the same source

| IC50 | Binder |
| --- | --- |
| 18 nM | AAAHFVAANTLHAAA [H4.N9.H12] |
| 8.1 nM | AAAHFVAAFTLKAEA [H4.F9.E14] |
| 27 nM | AAAEFVAAWTLHAAA [E4.H12] |
| 19 nM | AAANFVAAYTLHAAA [N4.Y9.H12] |
| 17 nM | AAAEFVAAYTLHAAA [E4.Y9.H12] |
